Data published in US20240262905A1.
Like-named read-outs stand apart in the source and are kept apart here.

Assays:
Insulin [1] = assay: ELISA, plate coated with insulin 5 ug/mL, test article at 100 nM, anti-human Fc-HRP detection
Insulin [2] = assay: as above; remark: listed apart in the source

Substance	Insulin polyreactivity score (Insulin [1])	Insulin polyreactivity score (Insulin [2])
Elotuzumab (antibody)	1.4	2.2
Lenzilumab (antibody)	40	18
